Substitutions are numbered along the chain they refer to.
T1: recombinant human BCMA Fc (human, UniProt Q02223 1-54)
T1 construct: not shown: Fc
T1 sequence: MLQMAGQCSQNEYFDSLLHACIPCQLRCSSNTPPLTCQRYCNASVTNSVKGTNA

T2: TACI huFc (R&D, #174TC) (human, UniProt O14836 2-166, limits assumed)
T2 construct: Bought reagent; also called human TACI; not shown: human Fc (huFc)
T2 sequence (looked up): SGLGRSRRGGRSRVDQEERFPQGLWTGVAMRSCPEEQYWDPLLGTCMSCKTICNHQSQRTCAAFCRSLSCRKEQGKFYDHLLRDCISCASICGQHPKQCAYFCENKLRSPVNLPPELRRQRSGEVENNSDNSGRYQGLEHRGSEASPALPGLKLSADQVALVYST

T3: BAFF R (R&D, #1162-BR) (human, UniProt Q96RJ3 7-71, limits assumed)
T3 construct: Bought reagent; also called human BAFF R
T3 sequence (looked up): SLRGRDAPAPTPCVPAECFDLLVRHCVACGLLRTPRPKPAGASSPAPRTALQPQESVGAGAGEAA

T4: human BCMA, full length, on cells (human, UniProt Q02223 1-184)
T4 construct: the cell line is named in each row's assay; also called K562-BCMA; K562 stably expressing BCMA
T4 sequence: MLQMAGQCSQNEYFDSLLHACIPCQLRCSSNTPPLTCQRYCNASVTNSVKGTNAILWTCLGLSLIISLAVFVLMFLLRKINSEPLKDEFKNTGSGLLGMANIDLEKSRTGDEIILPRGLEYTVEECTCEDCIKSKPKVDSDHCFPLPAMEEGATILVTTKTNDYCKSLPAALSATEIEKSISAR

B1: 25C2 scFv (scFv)
scFv: EVQLLESGGGLVQPGGSLRLSCAASGFTFGGNAMSWVRQAPGKGLEWVSAISGNGGSTFYADSVKGRFTISRDNSKNTLYLQMNSLRAEDTAVYYCAKVRPFWGTFDYWGQGTLVTVSSGGGGSGGGGSGGGGSEIVLTQSPGTLSLSPGERATLSCRASQSVSSSYLAWYQQKPGQAPRLLIYGASSRATGIPDRFSGSGSGTDFTLTISRLEPEDFAVYYCQQYFNPPEYTFGQGTKVEIKR
notes: scFv format; also called clone 25C2
B2: 25D2 scFv (scFv)
scFv: B1 scFv with G30R, G31S, N32Y, N54G, S57N
notes: scFv format; also called clone 25D2
B3: 25C2 (scFv_Fc) (Fc fusion)
chain: EVQLLESGGGLVQPGGSLRLSCAASGFTFGGNAMSWVRQAPGKGLEWVSAISGNGGSTFYADSVKGRFTISRDNSKNTLYLQMNSLRAEDTAVYYCAKVRPFWGTFDYWGQGTLVTVSSGGGGSGGGGSGGGGSEIVLTQSPGTLSLSPGERATLSCRASQSVSSSYLAWYQQKPGQAPRLLIYGASSRATGIPDRFSGSGSGTDFTLTISRLEPEDFAVYYCQQYFNPPEYTFGQGTKVEIK
notes: also called clone 25C2; not shown: human Fc fragment of vector V152
B4: 25D2 (scFv_Fc) (Fc fusion)
chain: B3 chain with G30R, G31S, N32Y, N54G, S57N
notes: also called clone 25D2; not shown: human Fc fragment of vector V152

Experiments:
BCMA_huFc [1] = biological target: BCMA_huFc (human); assay: biacore, supernatant of the clone after reinduction
BCMA_huFc [2] = biological target: BCMA_huFc (human); assay: biacore, supernatant of the clone after reinduction; column headed Dissociation constant (Kd, S^-1)
[3] = biological target: T1, recombinant human BCMA Fc; assay: ELISA(scFv), 2 ug/ml coated antigen, 200 nM scFv, HRP anti-Flag tag antibody
Description: (§1) 2 ug/ml recombinant human BCMA Fc, mouse BCMA Fc, TACI huFc (R&D, #174TC), BAFF R (R&D, #1162-BR) were coated on immunoplates at 4° C. overnight. The next day, 300 μl/well of 2% MPBS was added for 2 hours, then 200 nM purified antibody (scFv format) was added and incubated at 37° C. for 1 hour, washed three times with PBST (PBS containing 0.05% Tween-20), and washed three times with PBS. And then 1:4000 diluted HRP-labeled anti-Flag tag antibody (sigma, #A8592-1MG) was added, incubated for 1 hour at 37° C., washed three times with PBST (PBS containing 0.05% Tween-20) and washed three times with PBS. 100 ul/well of TMBS substrate was added and developed for 10-15 minutes. The reaction was quenched by adding 50 ul of 2 M sulfuric acid.

TACI huFc (R&D, #174TC) = biological target: T2, TACI huFc (R&D, #174TC); assay: ELISA(scFv), 2 ug/ml coated antigen, HRP anti-Flag tag antibody
Description: as §1

BAFF R (R&D, #1162-BR) = biological target: T3, BAFF R (R&D, #1162-BR); assay: as above
Description: as §1

[4] = biological target: T4, human BCMA, full length, on cells; assay: flow cytometry on K562-BCMA cells, scFv_Fc titrated, FITC anti-human Fc
Description: K562 and K562 cells (K562-BCMA) stably expressing human BCMA were used and harvested, washed with complete growth medium, and plated into U-bottom microtiter plates at about 1 to 5×10⁵ cells/well. The gradient-diluted scFv_Fc fusion antibody was incubated with K562-BCMA/K562 for 30 minutes on ice, and then incubated with FITC-labeled anti-human Fc as a secondary antibody. After two washing steps, the analysis was performed using a Guava easyCyte™ HT System, and the experimental data was processed using GraphPad Prism to obtain an EC50.

| fold lower Kd (dissociation rate) than parental clone 23F10 (BCMA_huFc [1]) [times] | koff (BCMA_huFc [2]) [s⁻¹] | binding result [3] | binding result (TACI huFc (R&D, #174TC)) | binding result (BAFF R (R&D, #1162-BR)) | EC50 [4] [nM] | Binder |
| --- | --- | --- | --- | --- | --- | --- |
| 10 | 0.000364 | binds | no binding (tested: 200 nM) | no binding (tested: 200 nM) | – | B1 |
| 10 | 0.000374 | binds | no binding (tested: 200 nM) | no binding (tested: 200 nM) | – | B2 |
| – | – | – | – | – | 2.59 | B3 |
| – | – | – | – | – | 1.89 | B4 |

Source: US20190359726A1 (CRAGE MEDICAL, published 2019)
